B1: Meiosis-specific protein SPO11 (Saccharomyces cerevisiae), P23179 (parent)
chain: MALEGLRKKYKTRQELVKALTPKRRSIHLNSNGHSNGTPCSNADVLAHIKHFLSLAANSLEQHQQPISIVFQNKKKKGDTSSPDIHTTLDFPLNGPHLCTHQFKLKRCAILLNLLKVVMEKLPLGKNTTVRDIFYSNVELFQRQANVVQWLDVIRFNFKLSPRKSLNIIPAQKGLVYSPFPIDIYDNILTCENEPKMQKQTIFPGKPCLIPFFQDDAVIKLGTTSMCNIVIVEKEAVFTKLVNNYHKLSTNTMLITGKGFPDFLTRLFLKKLEQYCSKLISDCSIFTDADPYGISIALNYTHSNERNAYICTMANYKGIRITQVLAQNNEVHNKSIQLLSLNQRDYSLAKNLIASLTANSWDIATSPLKNVIIECQREIFFQKKAEMNEIDARIFEYK
partner: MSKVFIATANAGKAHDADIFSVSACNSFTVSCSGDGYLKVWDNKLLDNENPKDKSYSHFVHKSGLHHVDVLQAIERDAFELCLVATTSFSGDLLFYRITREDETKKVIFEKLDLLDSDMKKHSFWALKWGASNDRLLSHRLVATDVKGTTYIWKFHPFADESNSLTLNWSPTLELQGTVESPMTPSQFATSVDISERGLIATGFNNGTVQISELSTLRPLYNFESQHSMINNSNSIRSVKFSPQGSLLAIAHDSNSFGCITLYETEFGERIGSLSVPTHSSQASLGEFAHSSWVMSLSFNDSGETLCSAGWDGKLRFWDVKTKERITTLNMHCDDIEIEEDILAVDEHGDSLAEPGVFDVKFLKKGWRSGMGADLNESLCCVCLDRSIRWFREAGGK

Variants of: B1
Details: with ski8_yeast SKI8, Q02793

| Variant | effect of a mutation on the interaction |
| --- | --- |
| R377A;E378A | disrupting interaction strength |
| Q376A | disrupting interaction strength |
